Non-standard residues stand in square brackets, D forms with d. No end group written: not given here. 4Amb = NCc1ccc(C(=O)O)cc1
T1: human Y2 receptor (human, UniProt P49146 1-381)
T1 construct: whole, on cells; used as membrane fraction of hY2R/CHO cells; also called human NPY2R; hY2R
T1 sequence (looked up): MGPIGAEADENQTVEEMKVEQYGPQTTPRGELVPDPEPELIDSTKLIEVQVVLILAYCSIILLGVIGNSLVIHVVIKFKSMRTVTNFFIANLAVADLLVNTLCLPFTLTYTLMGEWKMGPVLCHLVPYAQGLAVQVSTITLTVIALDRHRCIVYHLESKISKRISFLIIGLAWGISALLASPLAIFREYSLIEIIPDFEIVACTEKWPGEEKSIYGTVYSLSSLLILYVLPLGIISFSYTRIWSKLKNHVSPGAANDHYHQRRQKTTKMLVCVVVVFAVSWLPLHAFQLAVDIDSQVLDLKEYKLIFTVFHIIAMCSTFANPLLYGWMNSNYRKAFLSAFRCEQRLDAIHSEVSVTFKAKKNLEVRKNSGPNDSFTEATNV


Assays:
human Y2 receptor [1] = target: T1, human Y2 receptor; experiment: RBA: [125I]-PYY displacement, hY2R/CHO membranes
Method in brief: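 Bound radioligand was collected by filtration on PEI-treated GF/C filters, washed with Tris/MgCl₂/NaCl/CHAPS buffer pH 7.4, and counted by scintillation; IC₅₀ values were calculated.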

human Y2 receptor [2] = target: T1, human Y2 receptor; experiment: cell-based or functional assay

Binder	IC50 Ratio (vs PYY(3-36)) (human Y2 receptor [1]) [ratio]	GBA EC50 Ratio (vs PYY(3-36)), [35S]GTPγS (human Y2 receptor [2]) [ratio]
[4Amb]RAYANLITRQRY-NH2 (N-terminus assumed; SMILES CC[C@H](C)[C@H](NC(=O)[C@H](CC(C)C)NC(=O)[C@H](CC(N)=O)NC(=O)[C@H](C)NC(=O)[C@H](Cc1ccc(O)cc1)NC(=O)[C@H](C)NC(=O)[C@H](CCCNC(=N)N)NC(=O)c1ccc(CN)cc1)C(=O)N[C@H](C(=O)N[C@@H](CCCNC(=N)N)C(=O)N[C@@H](CCC(N)=O)C(=O)N[C@@H](CCCNC(=N)N)C(=O)N[C@@H](Cc1ccc(O)cc1)C(N)=O)[C@@H](C)O, also called compound No. 31) [4-Aminomethylbenzoyl-[Ala26,28, Ile31]-PYY(25-36)]	42	29
[4Amb]RAYINLFTRQRY-NH2 (N-terminus assumed; SMILES CC[C@H](C)[C@H](NC(=O)[C@H](Cc1ccc(O)cc1)NC(=O)[C@H](C)NC(=O)[C@H](CCCNC(=N)N)NC(=O)c1ccc(CN)cc1)C(=O)N[C@@H](CC(N)=O)C(=O)N[C@@H](CC(C)C)C(=O)N[C@@H](Cc1ccccc1)C(=O)N[C@H](C(=O)N[C@@H](CCCNC(=N)N)C(=O)N[C@@H](CCC(N)=O)C(=O)N[C@@H](CCCNC(=N)N)C(=O)N[C@@H](Cc1ccc(O)cc1)C(N)=O)[C@@H](C)O, also called compound No. 59) [4-Aminomethylbenzoyl-[Ala26, Ile28, Phe31]-PYY(25-36)]	16	6.6
[4Amb]RAYINGITRQRY-NH2 (N-terminus assumed; SMILES CC[C@H](C)[C@H](NC(=O)CNC(=O)[C@H](CC(N)=O)NC(=O)[C@@H](NC(=O)[C@H](Cc1ccc(O)cc1)NC(=O)[C@H](C)NC(=O)[C@H](CCCNC(=N)N)NC(=O)c1ccc(CN)cc1)[C@@H](C)CC)C(=O)N[C@H](C(=O)N[C@@H](CCCNC(=N)N)C(=O)N[C@@H](CCC(N)=O)C(=O)N[C@@H](CCCNC(=N)N)C(=O)N[C@@H](Cc1ccc(O)cc1)C(N)=O)[C@@H](C)O, also called compound No. 45) [4-Aminomethylbenzoyl-[Ala26, Ile28,31, Gly30]-PYY(25-36)]	21	12
[4Amb]RARINLITRQRY-NH2 (N-terminus assumed; SMILES CC[C@H](C)[C@H](NC(=O)[C@H](CCCNC(=N)N)NC(=O)[C@H](C)NC(=O)[C@H](CCCNC(=N)N)NC(=O)c1ccc(CN)cc1)C(=O)N[C@@H](CC(N)=O)C(=O)N[C@@H](CC(C)C)C(=O)N[C@H](C(=O)N[C@H](C(=O)N[C@@H](CCCNC(=N)N)C(=O)N[C@@H](CCC(N)=O)C(=O)N[C@@H](CCCNC(=N)N)C(=O)N[C@@H](Cc1ccc(O)cc1)C(N)=O)[C@@H](C)O)[C@@H](C)CC, also called compound No. 29) [4-Aminomethylbenzoyl-[Ala26, Arg27, Ile28,31]-PYY(25-36)]	6.8	4.3
[4Amb]RAQINLITRQRY-NH2 (N-terminus assumed; SMILES CC[C@H](C)[C@H](NC(=O)[C@H](CCC(N)=O)NC(=O)[C@H](C)NC(=O)[C@H](CCCNC(=N)N)NC(=O)c1ccc(CN)cc1)C(=O)N[C@@H](CC(N)=O)C(=O)N[C@@H](CC(C)C)C(=O)N[C@H](C(=O)N[C@H](C(=O)N[C@@H](CCCNC(=N)N)C(=O)N[C@@H](CCC(N)=O)C(=O)N[C@@H](CCCNC(=N)N)C(=O)N[C@@H](Cc1ccc(O)cc1)C(N)=O)[C@@H](C)O)[C@@H](C)CC, also called compound No. 30) [4-Aminomethylbenzoyl-[Ala26, Gln27, Ile28,31]-PYY(25-36)]	25	14
[4Amb]RAYINLATRQRY-NH2 (N-terminus assumed; SMILES CC[C@H](C)[C@H](NC(=O)[C@H](Cc1ccc(O)cc1)NC(=O)[C@H](C)NC(=O)[C@H](CCCNC(=N)N)NC(=O)c1ccc(CN)cc1)C(=O)N[C@@H](CC(N)=O)C(=O)N[C@@H](CC(C)C)C(=O)N[C@@H](C)C(=O)N[C@H](C(=O)N[C@@H](CCCNC(=N)N)C(=O)N[C@@H](CCC(N)=O)C(=O)N[C@@H](CCCNC(=N)N)C(=O)N[C@@H](Cc1ccc(O)cc1)C(N)=O)[C@@H](C)O, also called compound No. 33) [4-Aminomethylbenzoyl-[Ala26,31, Ile28]-PYY(25-36)]	23	17
[4Amb]RAYLNLITRQRY-NH2 (N-terminus assumed; SMILES CC[C@H](C)[C@H](NC(=O)[C@H](CC(C)C)NC(=O)[C@H](CC(N)=O)NC(=O)[C@H](CC(C)C)NC(=O)[C@H](Cc1ccc(O)cc1)NC(=O)[C@H](C)NC(=O)[C@H](CCCNC(=N)N)NC(=O)c1ccc(CN)cc1)C(=O)N[C@H](C(=O)N[C@@H](CCCNC(=N)N)C(=O)N[C@@H](CCC(N)=O)C(=O)N[C@@H](CCCNC(=N)N)C(=O)N[C@@H](Cc1ccc(O)cc1)C(N)=O)[C@@H](C)O, also called compound No. 20) [4-Aminomethylbenzoyl-[Ala26, Ile31]-PYY(25-36)]	2.8	2
[4Amb]RAYINYITRQRY-NH2 (N-terminus assumed; SMILES CC[C@H](C)[C@H](NC(=O)[C@H](Cc1ccc(O)cc1)NC(=O)[C@H](C)NC(=O)[C@H](CCCNC(=N)N)NC(=O)c1ccc(CN)cc1)C(=O)N[C@@H](CC(N)=O)C(=O)N[C@@H](Cc1ccc(O)cc1)C(=O)N[C@H](C(=O)N[C@H](C(=O)N[C@@H](CCCNC(=N)N)C(=O)N[C@@H](CCC(N)=O)C(=O)N[C@@H](CCCNC(=N)N)C(=O)N[C@@H](Cc1ccc(O)cc1)C(N)=O)[C@@H](C)O)[C@@H](C)CC, also called compound No. 57) [4-Aminomethylbenzoyl-[Ala26, Ile28,31, Tyr30]-PYY(25-36)]	2.8	1.9
[4Amb]RAYINLISRQRY-NH2 (N-terminus assumed; SMILES CC[C@H](C)[C@H](NC(=O)[C@H](Cc1ccc(O)cc1)NC(=O)[C@H](C)NC(=O)[C@H](CCCNC(=N)N)NC(=O)c1ccc(CN)cc1)C(=O)N[C@@H](CC(N)=O)C(=O)N[C@@H](CC(C)C)C(=O)N[C@H](C(=O)N[C@@H](CO)C(=O)N[C@@H](CCCNC(=N)N)C(=O)N[C@@H](CCC(N)=O)C(=O)N[C@@H](CCCNC(=N)N)C(=O)N[C@@H](Cc1ccc(O)cc1)C(N)=O)[C@@H](C)CC, also called compound No. 60) [4-Aminomethylbenzoyl-[Ala26, Ile28,31, Ser32]-PYY(25-36)]	180	44
[4Amb]RAYINAITRQRY-NH2 (N-terminus assumed; SMILES CC[C@H](C)[C@H](NC(=O)[C@H](C)NC(=O)[C@H](CC(N)=O)NC(=O)[C@@H](NC(=O)[C@H](Cc1ccc(O)cc1)NC(=O)[C@H](C)NC(=O)[C@H](CCCNC(=N)N)NC(=O)c1ccc(CN)cc1)[C@@H](C)CC)C(=O)N[C@H](C(=O)N[C@@H](CCCNC(=N)N)C(=O)N[C@@H](CCC(N)=O)C(=O)N[C@@H](CCCNC(=N)N)C(=O)N[C@@H](Cc1ccc(O)cc1)C(N)=O)[C@@H](C)O, also called compound No. 32) [4-Aminomethylbenzoyl-[Ala26,30, Ile28,31]-PYY(25-36)]	9.1	7.4
[4Amb]RAYINLILRQRY-NH2 (N-terminus assumed; SMILES CC[C@H](C)[C@H](NC(=O)[C@H](Cc1ccc(O)cc1)NC(=O)[C@H](C)NC(=O)[C@H](CCCNC(=N)N)NC(=O)c1ccc(CN)cc1)C(=O)N[C@@H](CC(N)=O)C(=O)N[C@@H](CC(C)C)C(=O)N[C@H](C(=O)N[C@@H](CC(C)C)C(=O)N[C@@H](CCCNC(=N)N)C(=O)N[C@@H](CCC(N)=O)C(=O)N[C@@H](CCCNC(=N)N)C(=O)N[C@@H](Cc1ccc(O)cc1)C(N)=O)[C@@H](C)CC, also called compound No. 62) [4-Aminomethylbenzoyl-[Ala26, Ile28,31, Leu32]-PYY(25-36)]	18	15
[4Amb]RAYINLITRQRF-NH2 (N-terminus assumed; SMILES CC[C@H](C)[C@H](NC(=O)[C@H](Cc1ccc(O)cc1)NC(=O)[C@H](C)NC(=O)[C@H](CCCNC(=N)N)NC(=O)c1ccc(CN)cc1)C(=O)N[C@@H](CC(N)=O)C(=O)N[C@@H](CC(C)C)C(=O)N[C@H](C(=O)N[C@H](C(=O)N[C@@H](CCCNC(=N)N)C(=O)N[C@@H](CCC(N)=O)C(=O)N[C@@H](CCCNC(=N)N)C(=O)N[C@@H](Cc1ccccc1)C(N)=O)[C@@H](C)O)[C@@H](C)CC, also called compound No. 6) [4-Aminomethylbenzoyl-[Ala26, Ile28,31, Phe36]-PYY(25-36)]	5.1	5.9
[4Amb]RAYINFITRQRY-NH2 (N-terminus assumed; SMILES CC[C@H](C)[C@H](NC(=O)[C@H](Cc1ccc(O)cc1)NC(=O)[C@H](C)NC(=O)[C@H](CCCNC(=N)N)NC(=O)c1ccc(CN)cc1)C(=O)N[C@@H](CC(N)=O)C(=O)N[C@@H](Cc1ccccc1)C(=O)N[C@H](C(=O)N[C@H](C(=O)N[C@@H](CCCNC(=N)N)C(=O)N[C@@H](CCC(N)=O)C(=O)N[C@@H](CCCNC(=N)N)C(=O)N[C@@H](Cc1ccc(O)cc1)C(N)=O)[C@@H](C)O)[C@@H](C)CC, also called compound No. 54) [4-Aminomethylbenzoyl-[Ala26, Ile28,31, Phe30]-PYY(25-36)]	5.7	3.4
